Experimental data as given in patent US20250152730A1, “ANTI-TM4SF1 ANTIBODY-DRUG CONJUGATES COMPRISING CLEAVABLE LINKERS AND METHODS OF USING SAME” (Angiex, Inc., priority 2022, published 2025).

Columns and labels:
[1] = in vivo; cited from earlier work
[2] = metabolite of trastuzumab emtansine (Kadcyla); every 2 weeks; cited from earlier work
HUVEC (endothelial cell) = assay: In vitro cell proliferation inhibition (killing) assay, HUVEC; format: cell-based, human; conditions: 5 days incubation
Experimental: Cells are incubated with antibody conjugate at various concentrations. The concentrations evaluated include a control, and five-fold dilution starting from 333.335 nM (333.335 nM, 66.667 nM, 13.334 nM, 2.667 nM, 0.533 nM (533.3360 pM), 106.6672 pM, 21.3334 pM, 4.2667 pM. Briefly, cells are seeded into 96-well plates a day before the antibody conjugates are added, whereupon cell viability is measured by PrestoBlue (ThermoFisher Scientific) through a plate reader (Varioskan™ LUX multimode microplate reader) five days after treatment with serial dilutions of the antibody conjugates. Cells are treated with media only or isotype matched control antibodies, as a negative control. The EC50 values are generated via GraphPad.
The effects of antibody drug-conjugates (drug to antibody ratio (DAR) varying from 1.8 to 4.2) containing a drug (maytansine) were assessed in cultured mouse (MS1) and human (HUVEC, A549, MiaPaCa2 and SKOV3) cells. Characteristics of the Exemplary Antibodies 1-5, each of which contains human IgG1 constant region with YTEC mutation, can be found in Table 3A. Cells were incubated for 5 days with the antibody drug conjugate before assessing cell viability on day 5.

[3] = target: T1, human TM4SF1 (transmembrane-4 L six family member-1) on HUVEC cells (UniProt P30408 1-202); assay: flow cytometry cell binding; HUVEC cells
T1 chain: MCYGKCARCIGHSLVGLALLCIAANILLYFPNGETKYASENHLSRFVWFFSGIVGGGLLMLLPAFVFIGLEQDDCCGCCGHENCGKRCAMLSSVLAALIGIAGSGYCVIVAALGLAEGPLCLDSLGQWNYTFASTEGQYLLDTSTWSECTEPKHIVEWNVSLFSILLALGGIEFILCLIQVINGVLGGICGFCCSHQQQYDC

[4] = Hydrophobicity by hydrophobic interaction chromatography (HIC); format: physicochemical; set-up: unit not given here; conditions: for Hydrophobicity (HIC), Average: average of 3 runs
Experimental: The hydrophobicity of exemplary anti-TM4SF1 antibodies, and their Fc mutation containing variants were assessed in this study, using hydrophobic interaction chromatography. The tested antibodies were AGX-A07 (the “wt,” “C,” and “YTEC”); MS (the “wt,” “C,” and “YTEC”). An anti-Her2 antibody with an Fc mutation was used as a control. Both in case of AGX-A07 and the murine surrogate anti-TM4SF1 antibody, it was observed that the hydrophobicity increased with the “C” and “YTEC” mutations.

## COc1ccc(/C=C\c2cc(OC)c(OC)c(OC)c2)cc1OP(=O)(O)O [CA4P, Combretastatin]
[1]
  Patients who experienced heart attacks while being treated: seven

## COc1cc2cc(c1Cl)N(C)C(=O)CC(O)C1(C)OC1C(C)C1CC(O)(NC(=O)O1)C(OC)/C=C/C=C(\C)C2 (stereo not drawn) [Maytansinol, maytansinol]
[2]
  Found in plasma: 7%

## BrAc-Galactose-Sar-N-Me-Alanine-DM1 [Free LP]
HUVEC (endothelial cell)
  EC50: 906 nM

B1: AGX-A07 variant comprising Fc region mutation N297C (antibody, V domains shown)
VH: QIQLVQSGPELKKPGETVKISCKASGYTFTNYGVKWVKQAPGKDLKWMGWINTYTGNPIYAADFKGRFAFSLETSASTAFLQINNLKNEDTATYFCVRFQYGDYRYFDVWGAGTTVTVSS
VL: QIILSQSPAILSASPGEKVTMTCRANSGISFINWYQQKPGSSPKPWIYGTANLASGVPARFGGSGSGTSYSLTISRVEAEDAATYYCQQWSSNPLTFGAGTKLELR
[3]
  EC50: 2.3 nM

B2: A07C: AGX-A07 anti-TM4SF1 antibody with Fc region mutation N297C (the “C” variant) (antibody, V domains shown)
VH: B1 VH
VL: B1 VL
[4]
  Hydrophobicity (HIC), Run 1: 5.614
  Hydrophobicity (HIC), Run 2: 5.591
  Hydrophobicity (HIC), Run 3: 5.606
  Hydrophobicity (HIC), Average: 5.60

B3: AGX-A07 variant comprising Fc region mutations N297C, M252Y, S254T and T256E (antibody, V domains shown)
VH: B1 VH
VL: B1 VL
[3]
  EC50: 1.75 nM

B4: AGX-A07 anti-TM4SF1 antibody (without Fc region mutations) (antibody, V domains shown)
VH: B1 VH
VL: B1 VL
[3]
  EC50: 2.16 nM

B5: A07-YTEC: AGX-A07 with N297C in combination with M252Y, S254T, and T256E (the “YTEC” variant) (antibody, V domains shown)
VH: B1 VH
VL: B1 VL
[4]
  Hydrophobicity (HIC), Run 1: 5.781
  Hydrophobicity (HIC), Run 2: 5.77
  Hydrophobicity (HIC), Run 3: 5.888
  Hydrophobicity (HIC), Average: 5.81

B6: A07-wt: AGX-A07 anti-TM4SF1 antibody without Fc region mutations (antibody, V domains shown)
VH: B1 VH
VL: B1 VL
[4]
  Hydrophobicity (HIC), Run 1: 5.547
  Hydrophobicity (HIC), Run 2: 5.523
  Hydrophobicity (HIC), Run 3: 5.568
  Hydrophobicity (HIC), Average: 5.55
